# Source: publication PMC9482650, “Quantitative fragmentomics allow affinity mapping of interactomes” (Nature Communications, 2022)
# T1: RAPGEF6, Q8TEU7
# T1 sequence (Q8TEU7 525-625, limits assumed, looked up): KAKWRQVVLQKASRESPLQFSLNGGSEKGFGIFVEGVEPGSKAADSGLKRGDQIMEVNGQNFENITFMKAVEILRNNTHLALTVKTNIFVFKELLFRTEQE
# T2: APBA2_1, Q99767
# T2 sequence (Q99767 563-664, limits assumed, looked up): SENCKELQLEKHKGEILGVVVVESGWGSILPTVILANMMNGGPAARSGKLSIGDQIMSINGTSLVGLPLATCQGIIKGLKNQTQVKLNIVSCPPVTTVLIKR
# T3: RHPN1, Q8TCX5
# T3 sequence (Q8TCX5 508-602, limits assumed, looked up): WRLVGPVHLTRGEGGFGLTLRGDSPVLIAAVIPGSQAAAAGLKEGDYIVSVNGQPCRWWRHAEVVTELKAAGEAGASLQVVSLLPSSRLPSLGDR
# T4: DFNB31_3, Q9P202
# T4 sequence (Q9P202 811-907, limits assumed, looked up): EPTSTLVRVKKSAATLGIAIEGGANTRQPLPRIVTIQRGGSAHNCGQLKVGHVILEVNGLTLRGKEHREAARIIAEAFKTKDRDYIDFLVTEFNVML
# T5: FRMPD1, Q5SYB0
# T5 sequence (Q5SYB0 52-145, limits assumed, looked up): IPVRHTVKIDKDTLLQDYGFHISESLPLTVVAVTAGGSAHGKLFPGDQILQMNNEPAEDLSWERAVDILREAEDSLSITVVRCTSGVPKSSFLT
# T6: PTPN13_1, Q12923
# T6 sequence (Q12923 1088-1188, limits assumed, looked up): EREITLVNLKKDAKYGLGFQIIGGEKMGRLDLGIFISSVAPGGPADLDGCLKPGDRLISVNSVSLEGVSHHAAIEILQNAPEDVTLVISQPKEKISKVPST
# T7: GRIP1_2, Q9Y3R0
# T7 sequence (Q9Y3R0 145-248, limits assumed, looked up): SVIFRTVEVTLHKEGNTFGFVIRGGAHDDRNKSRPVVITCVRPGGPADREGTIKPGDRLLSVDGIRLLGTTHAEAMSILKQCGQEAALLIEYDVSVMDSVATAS
# T8: MPDZ_5, O75970
# T8 sequence (O75970 695-796, limits assumed, looked up): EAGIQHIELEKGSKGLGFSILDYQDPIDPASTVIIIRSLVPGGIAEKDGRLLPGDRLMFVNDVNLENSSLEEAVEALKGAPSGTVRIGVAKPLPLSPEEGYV
# T9: DLG3_3, Q92796
# T9 sequence (Q92796 374-475, limits assumed, looked up): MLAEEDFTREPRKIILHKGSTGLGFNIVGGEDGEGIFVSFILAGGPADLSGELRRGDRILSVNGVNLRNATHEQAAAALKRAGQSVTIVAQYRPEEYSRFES
# T10: PDZD2_2, O15018
# T10 sequence (O15018 329-429, limits assumed, looked up): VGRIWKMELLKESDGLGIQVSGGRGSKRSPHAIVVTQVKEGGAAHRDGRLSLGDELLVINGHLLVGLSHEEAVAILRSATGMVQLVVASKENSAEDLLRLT
# T11: MPDZ_12, O75970
# T11 sequence (O75970 1857-1958, limits assumed, looked up): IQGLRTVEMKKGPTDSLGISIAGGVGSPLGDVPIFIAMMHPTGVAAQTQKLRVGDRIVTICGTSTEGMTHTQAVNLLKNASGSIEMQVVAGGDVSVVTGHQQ
# T12: LNX2_3, Q8N448
# T12 sequence (Q8N448 463-564, limits assumed, looked up): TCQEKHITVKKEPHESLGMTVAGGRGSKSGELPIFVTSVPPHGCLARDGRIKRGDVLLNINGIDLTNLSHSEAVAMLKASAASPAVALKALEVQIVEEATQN
# B1: NLGN4X, Q8N0W4 (peptide)
# chain: LPHGHSTTRV
# B2: KIF17, Q9P2E2 (peptide)
# chain: SKSNFGSEPL
# Molecular target: T1, RAPGEF6, Q8TEU7
# Experiment: holdup assay
# Set-up: key: below the threshold = too weak to quantify, mostly under pKd 3.1 to 4
# Conditions: plain residues with an end cap or a label only (N-terminal biotin on a linker: ado-ado)
row,pKd,Binder
1,below the threshold,B1
2,below the threshold,B2

# Molecular target: GRIP2_7, Q9C0E4
# Experiment: holdup assay
# Set-up: key: below the threshold = too weak to quantify, mostly under pKd 3.1 to 4
# Conditions: plain residues with an end cap or a label only (N-terminal biotin on a linker: ado-ado)
# GRIP2_7, Q9C0E4, sequence (Q9C0E4 934-1023): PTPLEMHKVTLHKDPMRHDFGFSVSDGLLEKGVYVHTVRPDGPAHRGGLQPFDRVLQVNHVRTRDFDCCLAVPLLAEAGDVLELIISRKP
row,pKd,Binder
1,below the threshold,B1
2,below the threshold,B2

# Molecular target: T2, APBA2_1, Q99767
# Experiment: holdup assay
# Set-up: key: below the threshold = too weak to quantify, mostly under pKd 3.1 to 4
# Conditions: plain residues with an end cap or a label only (N-terminal biotin on a linker: ado-ado)
row,pKd,Binder
1,below the threshold,B1
2,below the threshold,B2

# Molecular target: T3, RHPN1, Q8TCX5
# Experiment: holdup assay
# Set-up: key: below the threshold = too weak to quantify, mostly under pKd 3.1 to 4
# Conditions: plain residues with an end cap or a label only (N-terminal biotin on a linker: ado-ado)
row,pKd,Binder
1,4.04,B1
2,below the threshold,B2

# Molecular target: LNX1_2, Q8TBB1
# Experiment: holdup assay
# Set-up: key: below the threshold = too weak to quantify, mostly under pKd 3.1 to 4
# Conditions: plain residues with an end cap or a label only (N-terminal biotin on a linker: ado-ado)
# LNX1_2, Q8TBB1, sequence (Q8TBB1 371-470): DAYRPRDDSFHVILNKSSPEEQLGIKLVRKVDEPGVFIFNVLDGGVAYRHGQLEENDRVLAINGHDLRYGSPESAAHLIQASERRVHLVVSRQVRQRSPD
row,pKd,Binder
1,3.54,B1
2,below the threshold,B2

# Molecular target: SNX27, Q96L92
# Experiment: holdup assay
# Set-up: key: below the threshold = too weak to quantify, mostly under pKd 3.1 to 4
# Conditions: plain residues with an end cap or a label only (N-terminal biotin on a linker: ado-ado)
row,pKd,Binder
1,5.18,B1
2,below the threshold,B2

# Molecular target: HTRA2, O43464
# Experiment: holdup assay
# Set-up: key: below the threshold = too weak to quantify, mostly under pKd 3.1 to 4
# Conditions: plain residues with an end cap or a label only (N-terminal biotin on a linker: ado-ado)
# HTRA2, O43464, sequence (O43464 355-458): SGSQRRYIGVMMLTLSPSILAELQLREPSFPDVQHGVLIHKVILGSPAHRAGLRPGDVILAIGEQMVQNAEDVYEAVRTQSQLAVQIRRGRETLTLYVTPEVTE
row,pKd,Binder
1,below the threshold,B1
2,below the threshold,B2

# Molecular target: Inadl_8, Q8NI35
# Experiment: holdup assay
# Set-up: key: below the threshold = too weak to quantify, mostly under pKd 3.1 to 4
# Conditions: plain residues with an end cap or a label only (N-terminal biotin on a linker: ado-ado)
# Inadl_8, Q8NI35, sequence (Q8NI35 1425-1530): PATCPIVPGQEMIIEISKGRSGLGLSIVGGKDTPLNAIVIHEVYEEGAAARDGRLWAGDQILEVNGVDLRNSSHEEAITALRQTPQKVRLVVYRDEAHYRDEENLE
row,pKd,Binder
1,4.33,B1
2,below the threshold,B2

# Molecular target: DLG2_2, Q15700
# Experiment: holdup assay
# Set-up: key: below the threshold = too weak to quantify, mostly under pKd 3.1 to 4
# Conditions: plain residues with an end cap or a label only (N-terminal biotin on a linker: ado-ado)
# DLG2_2, Q15700, sequence (Q15700 189-283): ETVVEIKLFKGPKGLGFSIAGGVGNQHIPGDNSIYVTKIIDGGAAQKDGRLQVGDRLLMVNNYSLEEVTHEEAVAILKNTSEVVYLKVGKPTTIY
row,pKd,Binder
1,3.74,B1
2,below the threshold,B2

# Molecular target: T4, DFNB31_3, Q9P202
# Experiment: holdup assay
# Set-up: key: below the threshold = too weak to quantify, mostly under pKd 3.1 to 4
# Conditions: plain residues with an end cap or a label only (N-terminal biotin on a linker: ado-ado)
row,pKd,Binder
1,3.96,B1
2,below the threshold,B2

# Molecular target: T5, FRMPD1, Q5SYB0
# Experiment: holdup assay
# Set-up: key: below the threshold = too weak to quantify, mostly under pKd 3.1 to 4
# Conditions: plain residues with an end cap or a label only (N-terminal biotin on a linker: ado-ado)
row,pKd,Binder
1,below the threshold,B1
2,below the threshold,B2

# Molecular target: NOS1, P29475
# Experiment: holdup assay
# Set-up: key: below the threshold = too weak to quantify, mostly under pKd 3.1 to 4
# Conditions: plain residues with an end cap or a label only (N-terminal biotin on a linker: ado-ado)
# NOS1, P29475, sequence (P29475 9-101): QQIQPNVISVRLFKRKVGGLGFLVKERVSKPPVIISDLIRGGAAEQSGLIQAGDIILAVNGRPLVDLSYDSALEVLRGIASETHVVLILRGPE
row,pKd,Binder
1,3.76,B1
2,below the threshold,B2

# Molecular target: NHERF4_1, Q86UT5-2
# Experiment: holdup assay
# Set-up: key: below the threshold = too weak to quantify, mostly under pKd 3.1 to 4
# Conditions: plain residues with an end cap or a label only (N-terminal biotin on a linker: ado-ado)
# NHERF4_1, Q86UT5-2, sequence (Q86UT5 other isoform, or with tags, fused parts or gaps): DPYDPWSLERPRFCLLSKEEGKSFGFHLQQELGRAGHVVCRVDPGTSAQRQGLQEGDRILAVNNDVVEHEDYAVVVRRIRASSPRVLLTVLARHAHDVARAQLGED
row,pKd,Binder
1,3.76,B1
2,4.21,B2

# Molecular target: T6, PTPN13_1, Q12923
# Experiment: holdup assay
# Set-up: key: below the threshold = too weak to quantify, mostly under pKd 3.1 to 4
# Conditions: plain residues with an end cap or a label only (N-terminal biotin on a linker: ado-ado)
row,pKd,Binder
1,below the threshold,B1
2,below the threshold,B2

# Molecular target: MAGI2_2, Q86UL8
# Experiment: holdup assay
# Set-up: key: below the threshold = too weak to quantify, mostly under pKd 3.1 to 4
# Conditions: plain residues with an end cap or a label only (N-terminal biotin on a linker: ado-ado)
# MAGI2_2, Q86UL8, sequence (Q86UL8 410-522): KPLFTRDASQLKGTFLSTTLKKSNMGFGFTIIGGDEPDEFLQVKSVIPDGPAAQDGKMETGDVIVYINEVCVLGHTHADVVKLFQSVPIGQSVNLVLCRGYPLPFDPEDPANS
row,pKd,Binder
1,4.95,B1
2,below the threshold,B2

# Molecular target: T7, GRIP1_2, Q9Y3R0
# Experiment: holdup assay
# Set-up: key: below the threshold = too weak to quantify, mostly under pKd 3.1 to 4
# Conditions: plain residues with an end cap or a label only (N-terminal biotin on a linker: ado-ado)
row,pKd,Binder
1,below the threshold,B1
2,below the threshold,B2

# Molecular target: T8, MPDZ_5, O75970
# Experiment: holdup assay
# Set-up: key: below the threshold = too weak to quantify, mostly under pKd 3.1 to 4
# Conditions: plain residues with an end cap or a label only (N-terminal biotin on a linker: ado-ado)
row,pKd,Binder
1,below the threshold,B1
2,below the threshold,B2

# Molecular target: T9, DLG3_3, Q92796
# Experiment: holdup assay
# Set-up: key: below the threshold = too weak to quantify, mostly under pKd 3.1 to 4
# Conditions: plain residues with an end cap or a label only (N-terminal biotin on a linker: ado-ado)
row,pKd,Binder
1,4.27,B1
2,below the threshold,B2

# Molecular target: FRMPD2_3, Q68DX3
# Experiment: holdup assay
# Set-up: key: below the threshold = too weak to quantify, mostly under pKd 3.1 to 4
# Conditions: plain residues with an end cap or a label only (N-terminal biotin on a linker: ado-ado)
# FRMPD2_3, Q68DX3, sequence (Q68DX3 1073-1166): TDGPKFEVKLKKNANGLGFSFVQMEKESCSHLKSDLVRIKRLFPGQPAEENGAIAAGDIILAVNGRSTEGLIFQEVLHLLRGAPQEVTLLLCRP
row,pKd,Binder
1,below the threshold,B1
2,below the threshold,B2

# Molecular target: T10, PDZD2_2, O15018
# Experiment: holdup assay
# Set-up: key: below the threshold = too weak to quantify, mostly under pKd 3.1 to 4
# Conditions: plain residues with an end cap or a label only (N-terminal biotin on a linker: ado-ado)
row,pKd,Binder
1,3.53,B1
2,below the threshold,B2

# Molecular target: AHNAK1, Q09666
# Experiment: holdup assay
# Set-up: key: below the threshold = too weak to quantify, mostly under pKd 3.1 to 4
# Conditions: plain residues with an end cap or a label only (N-terminal biotin on a linker: ado-ado)
# AHNAK1, Q09666, sequence (Q09666 4-100): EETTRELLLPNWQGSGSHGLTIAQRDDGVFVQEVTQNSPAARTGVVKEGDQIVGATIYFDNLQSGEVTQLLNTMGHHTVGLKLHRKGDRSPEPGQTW
row,pKd,Binder
1,below the threshold,B1
2,below the threshold,B2

# Molecular target: GRIP2_3, Q9C0E4
# Experiment: holdup assay
# Set-up: key: below the threshold = too weak to quantify, mostly under pKd 3.1 to 4
# Conditions: plain residues with an end cap or a label only (N-terminal biotin on a linker: ado-ado)
# GRIP2_3, Q9C0E4, sequence (Q9C0E4 238-339): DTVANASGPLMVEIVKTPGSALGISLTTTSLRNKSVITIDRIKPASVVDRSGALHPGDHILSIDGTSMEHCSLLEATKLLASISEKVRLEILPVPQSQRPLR
row,pKd,Binder
1,below the threshold,B1
2,below the threshold,B2

# Molecular target: T11, MPDZ_12, O75970
# Experiment: holdup assay
# Set-up: key: below the threshold = too weak to quantify, mostly under pKd 3.1 to 4
# Conditions: plain residues with an end cap or a label only (N-terminal biotin on a linker: ado-ado)
row,pKd,Binder
1,below the threshold,B1
2,below the threshold,B2

# Molecular target: T12, LNX2_3, Q8N448
# Experiment: holdup assay
# Set-up: key: below the threshold = too weak to quantify, mostly under pKd 3.1 to 4
# Conditions: plain residues with an end cap or a label only (N-terminal biotin on a linker: ado-ado)
row,pKd,Binder
1,below the threshold,B1
2,below the threshold,B2
